No end group written: not given here. *: point of attachment. G0F = octasaccharide N-glycan with core α-1,6-fucose, CC(=O)N[C@@H]1[C@@H](O)[C@H](O[C@@H]2O[C@H](CO)[C@@H](O[C@@H]3O[C@H](CO[C@H]4O[C@H](CO)[C@@H](O)[C@H](O)[C@@H]4O[C@@H]4O[C@H](CO)[C@@H](O)[C@H](O)[C@H]4NC(C)=O)[C@@H](O)[C@H](O[C@H]4O[C@H](CO)[C@@H](O)[C@H](O)[C@@H]4O[C@@H]4O[C@H](CO)[C@@H](O)[C@H](O)[C@H]4NC(C)=O)[C@@H]3O)[C@H](O)[C@H]2NC(C)=O)[C@@H](CO[C@@H]2O[C@@H](C)[C@@H](O)[C@@H](O)[C@@H]2O)O[C@H]1*
Molecular target: anti-fuc-PSA mAb 2E9 (rabbit)
Experiment: SPR; Biacore 8k, 37 °C, HBS-ET (10 mM HEPES pH 7.4, 150 mM NaCl, 3 mM EDTA, 0.005% Tween 20) with 1 mg/mL carboxymethyl dextran; rabbit IgG from culture supernatant captured by goat anti-rabbit Fcγ on CM5; peptides injected at 0, 11, 33, 100, 300, 900 nM; Langmuir fit

Sequence of anti-fuc-PSA mAb 2E9 (rabbit) (heavy, as listed by the source, chain 1 of 2): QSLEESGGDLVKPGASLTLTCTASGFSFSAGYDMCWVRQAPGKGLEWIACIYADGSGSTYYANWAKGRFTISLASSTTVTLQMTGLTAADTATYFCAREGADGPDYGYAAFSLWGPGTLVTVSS
Sequence of anti-fuc-PSA mAb 2E9 (rabbit) (light, as listed by the source, chain 2 of 2): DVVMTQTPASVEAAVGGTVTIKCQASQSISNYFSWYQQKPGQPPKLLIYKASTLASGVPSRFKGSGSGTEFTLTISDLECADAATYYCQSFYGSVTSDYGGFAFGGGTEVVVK

BL (binding late): 27 RU
Kd: 0.6 nM
stoichiometry N: 2
t1/2 (antibody–antigen complex half-life): 10 min
Binder: IRN(G0F)KSVILLGRHS [PSA(67–79)-G0F]

— paper PMC11254934
